The text below walks through data of US20190185562A1 (Regeneron, published 2019).

The target in assay [1] is T1, human gp130 expressed endogenously on IMR-32/Stat3-luc cells (human, UniProt P40189 23-918).
T1 construct: whole, on cells
T1 sequence (looked up): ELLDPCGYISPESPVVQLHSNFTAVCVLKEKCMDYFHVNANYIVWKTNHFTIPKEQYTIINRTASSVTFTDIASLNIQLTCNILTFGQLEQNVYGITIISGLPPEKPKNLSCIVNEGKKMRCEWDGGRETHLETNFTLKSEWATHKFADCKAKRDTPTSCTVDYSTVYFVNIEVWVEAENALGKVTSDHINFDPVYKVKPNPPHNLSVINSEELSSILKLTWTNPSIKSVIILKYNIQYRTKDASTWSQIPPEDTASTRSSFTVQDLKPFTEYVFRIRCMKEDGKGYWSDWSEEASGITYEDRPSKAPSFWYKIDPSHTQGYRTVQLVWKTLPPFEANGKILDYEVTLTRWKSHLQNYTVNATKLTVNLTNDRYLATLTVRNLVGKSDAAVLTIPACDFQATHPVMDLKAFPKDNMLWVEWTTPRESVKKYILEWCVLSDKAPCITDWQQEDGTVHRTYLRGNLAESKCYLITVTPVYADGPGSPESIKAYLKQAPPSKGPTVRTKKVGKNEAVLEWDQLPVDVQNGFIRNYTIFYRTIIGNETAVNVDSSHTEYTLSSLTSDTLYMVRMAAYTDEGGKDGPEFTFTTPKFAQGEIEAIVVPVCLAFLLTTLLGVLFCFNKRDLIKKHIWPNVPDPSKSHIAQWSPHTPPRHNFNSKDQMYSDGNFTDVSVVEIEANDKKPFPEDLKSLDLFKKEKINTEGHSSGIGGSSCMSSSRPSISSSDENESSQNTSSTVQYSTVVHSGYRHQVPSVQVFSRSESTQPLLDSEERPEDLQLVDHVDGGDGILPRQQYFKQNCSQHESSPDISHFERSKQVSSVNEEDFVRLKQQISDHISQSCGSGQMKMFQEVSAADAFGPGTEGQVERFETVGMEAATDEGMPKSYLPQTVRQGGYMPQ
The experiment in a line: FACS, 10 nM mAb, IMR-32/Stat3-luc cells, no hGP130.mmh. The text has this:
(§1) In order to assess cell binding by anti-GP130 antibodies of the invention two cell lines were generated. One cell line generated was HEK293 cells stably over-expressing full length (FL) human gp130 (amino acids 1-918 of accession # P40189 with leucine at position 2 changed to valine, a natural variant) along with a luciferase reporter (Stat3-luciferase, Stat3-luc, SA Bioscience, #CLS-6028L). The cells were sorted twice using flow cytometry for high expression of gp130. It is known hereafter as HEK293/Stat3-luc/gp130-2X Sort. IMR-32 cells (human Neuroblastoma, ATCC), were also evaluated for cell binding as these cells express gp130 endogenously and were used for bioassays. The cells used for binding were generated to stably express a luciferase reporter (Stat3-luciferase, Stat3-luc, SA Bioscience, #CLS-6028L), and are referred to hereafter as IMR-32/STAT3-Luc cells.
(§2) For the FACS analysis, 10 nM of the antibodies were used to stain 0.5×10^6 cells/well of each cell type at 4° C. in PBS (without calcium and magnesium) containing 2% FBS for 30 minutes. IMR-32/STAT3-luc cells were incubated with 1 mg/mL mouse IgG for 30 minutes at 4° C. to block Fc receptors prior to adding the antibodies. To test whether the anti-gp130 antibody binding is specific for gp130 on the IMR-32 cells, antibodies were added to IMR-32/Stat3-luc cells with or without being pre-bound to 1000 nM of recombinant protein of the ecto-domain of human gp130 fused to myc-myc-his tag (hgp130.mmh) for 30 minutes at 25° C. […] Cells were fixed using BD CytoFix™ (Becton Dickinson, #554655) and analyzed on an IQue® (Intellicyt®) Flow Cytometer. Unstained and secondary antibody alone controls were also tested for all cell lines. The results were analyzed using ForeCyt® (IntelliCyt®) software to determine the geometric means of fluorescence for viable cells.

Assay [2] deals with T2, full length (FL) human gp130 over-expressed on HEK293/Stat3-luc/gp130-2X Sort cells (human, UniProt P40189 23-918).
T2 construct: whole, on cells
T2 sequence (looked up): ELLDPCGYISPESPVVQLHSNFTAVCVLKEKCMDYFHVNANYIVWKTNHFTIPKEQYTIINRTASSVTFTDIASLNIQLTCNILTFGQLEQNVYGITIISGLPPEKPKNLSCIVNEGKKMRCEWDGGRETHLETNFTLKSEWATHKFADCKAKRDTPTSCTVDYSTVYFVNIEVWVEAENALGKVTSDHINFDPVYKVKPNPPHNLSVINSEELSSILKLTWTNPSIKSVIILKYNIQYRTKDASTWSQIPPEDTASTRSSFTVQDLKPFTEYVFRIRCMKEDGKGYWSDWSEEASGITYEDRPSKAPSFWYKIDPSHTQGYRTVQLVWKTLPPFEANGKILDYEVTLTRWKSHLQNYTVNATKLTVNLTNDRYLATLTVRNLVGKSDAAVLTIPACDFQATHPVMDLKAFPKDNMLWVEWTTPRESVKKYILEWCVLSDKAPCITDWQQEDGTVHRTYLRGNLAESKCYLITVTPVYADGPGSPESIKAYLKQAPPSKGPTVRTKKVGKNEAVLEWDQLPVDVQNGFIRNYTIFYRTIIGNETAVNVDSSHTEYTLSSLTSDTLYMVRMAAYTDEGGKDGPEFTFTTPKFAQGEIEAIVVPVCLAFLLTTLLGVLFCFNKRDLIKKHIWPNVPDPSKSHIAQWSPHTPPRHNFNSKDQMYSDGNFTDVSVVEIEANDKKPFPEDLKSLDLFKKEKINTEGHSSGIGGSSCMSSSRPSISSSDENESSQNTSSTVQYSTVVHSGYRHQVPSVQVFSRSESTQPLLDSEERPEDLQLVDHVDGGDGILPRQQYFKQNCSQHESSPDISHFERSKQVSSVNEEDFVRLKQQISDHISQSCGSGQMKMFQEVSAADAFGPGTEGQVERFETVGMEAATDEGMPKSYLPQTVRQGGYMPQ
The experiment in a line: FACS, 10 nM mAb, 293/Stat3-luc/GP130 2X sort cells.
Source text: as §1, §2
On the technique in general: A flow cytometer gives signals particle by particle.

Assay [3] has as its target T1, human gp130 expressed endogenously on …. The experiment in a line: FACS, 10 nM mAb, IMR-32/Stat3-luc cells, competitor 1 uM hGP130.mmh.
Source text: as §1, §2

B1: MAb16636 (antibody, V domains shown)
VH: QLQLQESGPGLVKPSETLSLICTVSGGSISSNNYYWGWIRQPPGKGLEWIGNLYGSGSTYYNPSLKSRVTISVDTSKNQFSLKLSFVTAADTAVYHCARWDTNGGAFDIWGQGTMVTVSS
VL: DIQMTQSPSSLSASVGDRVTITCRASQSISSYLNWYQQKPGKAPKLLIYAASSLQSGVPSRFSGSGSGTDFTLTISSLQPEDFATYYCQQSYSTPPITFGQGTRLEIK
notes: Variable domains only
Turning to B1, the “MFI - Normalized to Unstained Control” value in assay [1] came out at 8; in assay [2], 92; in assay [3], 7.

B2: MAb16669 (antibody, V domains shown)
VH: EVQLVESGGGLVQPGGSLRLSCAASGFTFSSYAMNWVRQAPGKGLEWVSAISGSGDSTYYTDSVKGRFTISRDNSKNTLYLQMNTLRAEDTAVYYCAKEEIVMLVGATPGWFDPWGQGTLVTVSS
VL: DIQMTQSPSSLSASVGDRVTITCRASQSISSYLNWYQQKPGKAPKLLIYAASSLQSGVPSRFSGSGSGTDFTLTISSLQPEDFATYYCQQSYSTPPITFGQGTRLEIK
notes: Variable domains only
Regarding B2, the “MFI - Normalized to Unstained Control” value in assay [1] came to 6; in assay [2], 53; in assay [3], 5.

B3: MAb16682 (antibody, V domains shown)
VH: EVQLVESGGGLVQPGGSLRLSCAASGFTFSTYWMNWVRQAPGKGLEWVANIKEDGSEKYYVDSVKGRFTISRDNAKNSLYLQMNSLRAEDTAVYYCAREGFGVVTYIWGQGTMVTVSS
VL: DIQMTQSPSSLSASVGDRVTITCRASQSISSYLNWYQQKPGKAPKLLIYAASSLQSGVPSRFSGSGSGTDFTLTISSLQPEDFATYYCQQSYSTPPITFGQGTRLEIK
notes: Variable domains only
Consider B3, for which the “MFI - Normalized to Unstained Control” value in assay [1] came to 6; in assay [2], 80; in assay [3] it was 8.

B4: MAb16664 (antibody, V domains shown)
VH: QVQLVQSGTEVKKPGSSVKVSCKASGGTFSTYPINWVRQAPGQGLEWMGGIIPIFGTASYAQKFQGRVAITTDESTSTAYMELNSLRSEDTAVYYCARERPNWGSNDYWGQGTLVTVSS
VL: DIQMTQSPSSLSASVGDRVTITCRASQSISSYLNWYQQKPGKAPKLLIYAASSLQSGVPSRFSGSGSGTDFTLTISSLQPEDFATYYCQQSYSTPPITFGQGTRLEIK
notes: Variable domains only
B4: the “MFI - Normalized to Unstained Control” value in assay [1] was 7; in assay [2], 45; in assay [3] it was 8.

B5: MAb16673 (antibody, V domains shown)
VH: EVQLVQSGAEVKKPGESLKISCKGSGYSFTSYWIDWVRQMPGKGLEWMGIIYPDDSDTRYSPSFQGQVTMSVDKSISTAYLQWSSLKASDTAIYYCARHERGIVEAGTDYYYYYGMDVWGQGTTVTVSS
VL: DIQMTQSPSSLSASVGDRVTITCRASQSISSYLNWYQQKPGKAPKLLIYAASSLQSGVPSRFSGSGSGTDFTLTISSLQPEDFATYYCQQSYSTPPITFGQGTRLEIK
notes: Variable domains only
With B5, the entries for the “MFI - Normalized to Unstained Control” value in assay [1], in assay [2] and in assay [3] were 10, 107 and 7, respectively.

B6: MAb16659 (antibody, V domains shown)
VH: QVQLVQSGPEVKKPGSSVKVSCKASGGTIDRNEITWVRQAPGQGLEWMGVIIPILGEAHYERKFQGRLTITMDESTSTAYMELSNLRSEDTAVYYCARERAARGYLDYWGQGTLVTVSS
VL: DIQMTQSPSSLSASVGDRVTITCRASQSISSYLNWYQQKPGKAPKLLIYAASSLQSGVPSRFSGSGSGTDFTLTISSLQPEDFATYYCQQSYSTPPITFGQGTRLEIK
notes: Variable domains only
Take B6: the results for the “MFI - Normalized to Unstained Control” value in assay [1], in assay [2] and in assay [3] were 8, 81 and 8, respectively.

B7: MAb16623 (antibody, V domains shown)
VH: EVQLVESGGGLVQPGGSLRLSCAASGLTFSSYEMNWVRQAPGKGLEWVSHISSAGSTKYYADSVKGRFTISRDNAKNSLFLQMNSLRAEDTAIYYCAGYNYAYYYFGVDVWGQGTTVTVSS
VL: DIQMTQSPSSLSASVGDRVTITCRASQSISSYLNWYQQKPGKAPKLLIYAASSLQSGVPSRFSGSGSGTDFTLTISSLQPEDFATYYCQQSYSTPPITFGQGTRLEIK
notes: Variable domains only
Regarding B7, the “MFI - Normalized to Unstained Control” value in assay [1] was 8; in assay [2], 96; in assay [3] it was 7.

B8: MAb16662 (antibody, V domains shown)
VH: EVQLVESGGGLVQPGGSLRLSCTASGFTFSNYAIFWVRQAPGKGLEYVSGISNNGVTKYYADSVRDRFTISRDNSRNTVSIQMDSLRTEDMAVYYCARENWGSDDGFDIWGQGTMVTVSS
VL: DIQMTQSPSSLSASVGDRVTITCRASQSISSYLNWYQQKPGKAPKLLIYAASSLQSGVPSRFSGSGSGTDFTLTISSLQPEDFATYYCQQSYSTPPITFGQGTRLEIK
notes: Variable domains only
With B8, the “MFI - Normalized to Unstained Control” value came to 5 in assay [1], 49 in assay [2] and 6 in assay [3].

B9: MAb16614 (antibody, V domains shown)
VH: QVQLVESGGGVVQPGGSLRLSCAASGFTFSTYDIHWVRQAPGKGLEWVAVISFDGSNRNYGDSVKGRFTISRDNSDNTLFLEMNNLRFEDTAVYYCAKEGYGVDFQHWGQGTLVTVSS
VL: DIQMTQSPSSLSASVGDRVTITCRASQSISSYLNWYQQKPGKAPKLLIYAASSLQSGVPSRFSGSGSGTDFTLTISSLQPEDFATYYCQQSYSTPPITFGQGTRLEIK
notes: Variable domains only
On to B9, for which the “MFI - Normalized to Unstained Control” value was determined as 7 in assay [1], 94 in assay [2] and 6 in assay [3].

B10: MAb16683 (antibody, V domains shown)
VH: QVQLVESGGGLVKPGGSLRLSCAASGFTFSDYYMTWIRQTPGKGLDWVSYISSSGTNKYNADSVKGRFTISRDNAKNSLYLQMNSLRAEDTAVYYCVRDPPWGMDVWGQGTTVTVSS
VL: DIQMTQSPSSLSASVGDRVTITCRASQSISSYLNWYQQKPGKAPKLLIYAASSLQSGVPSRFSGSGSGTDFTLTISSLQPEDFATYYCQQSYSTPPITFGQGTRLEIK
notes: Variable domains only
With B10, the “MFI - Normalized to Unstained Control” value in assay [1] is 9; in assay [2], 75; in assay [3] it was 7.

B11: MAb16676 (antibody, V domains shown)
VH: QVQLVQSGAEVMKPGASVKVSCRASGYTFSSYDINWVRQAPGQGLEWMGWISTATGNTNYPQKVQGRVTMTTDTSTNTAYMELRSLRSDDTAVYYCTREGNSKGWLDPWGQGTLVTVSS
VL: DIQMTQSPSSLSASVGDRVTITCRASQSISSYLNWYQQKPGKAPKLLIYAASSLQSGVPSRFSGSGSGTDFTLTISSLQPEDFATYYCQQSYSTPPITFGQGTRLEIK
notes: Variable domains only
As to B11, the “MFI - Normalized to Unstained Control” value in assay [1] came to 9; in assay [2], 74; in assay [3] it was 8.

B12: MAb16665 (antibody, V domains shown)
VH: QVQLVESGGGVVQPGRSLRLACAASGFTFRSYGMHWVRQAPGKGLEWVAVIWYDGSNKYYTDSVKGRFTISRDNSKNTLYLQMNSLRAEDTAMYYCAIDKWATVTTYLFDYWGQGTLVTVSS
VL: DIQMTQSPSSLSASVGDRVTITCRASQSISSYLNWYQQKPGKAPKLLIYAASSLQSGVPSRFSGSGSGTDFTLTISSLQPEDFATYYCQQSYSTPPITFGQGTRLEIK
notes: Variable domains only
On to B12, for which the “MFI - Normalized to Unstained Control” value in assay [1] was 5; in assay [2], 55; in assay [3] it was 6.

B13: MAb16637 (antibody, V domains shown)
VH: QVQLVQSGAEVKKPGASVKVSCKASGYTFTSLGISWVRQAPGQGLEWMGWISAYSGNRDYAQKFQGRVTMTTDTSTSTAYMELRSLRSDDTAVYYCARSLRFDYWGQGTLVTVSS
VL: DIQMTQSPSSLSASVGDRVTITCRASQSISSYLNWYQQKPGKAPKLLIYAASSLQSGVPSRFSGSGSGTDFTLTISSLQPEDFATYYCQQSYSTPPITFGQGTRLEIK
notes: Variable domains only
In the case of B13, the “MFI - Normalized to Unstained Control” value in assay [1] was 9; in assay [2], 121; in assay [3], 7.

B14: MAb16656 (antibody, V domains shown)
VH: EVQLVESGGGLVQPGRSLRLSCAASGFTLDDFAMHWVRQAPGKGLEWVSGISWNSGNIGYADSVKGRFTISRDNARNSLYLQMNSLRAEDTALYYCTSGYYLYYAMDVWGQGTTVTVSS
VL: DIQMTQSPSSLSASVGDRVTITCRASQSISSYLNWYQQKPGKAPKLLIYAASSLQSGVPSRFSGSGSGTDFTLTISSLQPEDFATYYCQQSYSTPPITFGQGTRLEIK
notes: Variable domains only
For the molecule B14, the “MFI - Normalized to Unstained Control” value in assay [1] was 12; in assay [2], 132; in assay [3], 7.

B15: MAb16622 (antibody, V domains shown)
VH: EVQLVESGGGVVRPGGSLRLSCTASGFTFDDYGMSWVRQAPGKGLEWVSGINWNGGRTEYADAVKGRFIISRDNAKNSLYLQMNSLRAEDTALYFCARTELRWDYWGQGTLVTVSS
VL: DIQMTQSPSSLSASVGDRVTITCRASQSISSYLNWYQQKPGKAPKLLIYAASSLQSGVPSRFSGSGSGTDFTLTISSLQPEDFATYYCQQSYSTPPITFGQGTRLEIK
notes: Variable domains only
As for B15, the “MFI - Normalized to Unstained Control” value in assay [1] was 5; in assay [2], 91; in assay [3], 7.

B16: MAb16618 (antibody, V domains shown)
VH: QVQLQESGPGLVKPSETLSLTCTVSGGSISNYYWTWIRQPPGKGLEWIGHISNSGTTNYNPSLKSRVTISVDTSKNQFSLKLTSVTAADTAVYYCARLPLGIAAVDTDYYYYFGMDVWGQGTTVTVSS
VL: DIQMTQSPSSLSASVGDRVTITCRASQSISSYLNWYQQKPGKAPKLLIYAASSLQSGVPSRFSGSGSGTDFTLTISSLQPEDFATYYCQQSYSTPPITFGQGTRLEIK
notes: Variable domains only
Turning to B16, the “MFI - Normalized to Unstained Control” value in assay [1] is 7; in assay [2], 105; in assay [3], 8.
